The data set relates to Saccharomyces cerevisiae. The data set can be described thus: transcriptional activation domain activity (GFP:mCherry ratio, weighted mean of sorted bins, harmonized to initial dataset scale) (arbitrary fluorescence ratio units); higher = stronger transcriptional activation. The settings on record: beta-estradiol 1 µM; induction time 4 h. The procedure, abridged: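 The activation activity of each tile is the read-weighted mean of bin median fluorescence, averaged across its barcodes and mapped linearly onto the scale of the initial dataset. Tiles were fused to an estradiol-inducible synthetic transcription factor, barcoded, and integrated at URA3 in yeast diploids carrying a GFP reporter. Induction used 1 uM beta-estradiol in SC for 4 hours at 30 °C, after which cells were sorted into 8 GFP:mCherry bins, and any tile with fewer than 50 reads was dropped.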

These results are taken from the supplement of paper PMC12636428.

For “PDRPCYSAIVRISTSRLHFYECKLYAHAFFQGLRYFMYHWRWTTTLVLMSLFL”, the “transcriptional activation domain activity” value is 47200.

As to “PDVEQMVLHFYLQLCYEFFDRCPTLFHASLGLINPSTSCCCGLLFLLFFVFLY”, the “transcriptional activation domain activity” value is 72800. With “PDVLRKGAKFFCDETVLVKLQIVTLAAKLLVLSPNNLTLILLTKYVFGLARYD”, the “transcriptional activation domain activity” value turned out to be 63000. With “PDYLFSRLFVCAFISLFVSLSFLQLGNGLRDLQFRVFSIFWVSILPAIIMSQI”, the “transcriptional activation domain activity” value turned out to be 52200. With “PEAAPGEEVKEEAGEEQKPDRRDRRGRDRGGRGGRDRGRGRGGASRGGKRGDT”, the “transcriptional activation domain activity” value came out at 26700. On to “PEALIQFNQVWVNHFKDPFTNIYYHQSPELSGSKYYELIYLRAFICLMFCFQF”, for which the “transcriptional activation domain activity” value was found to be 55100. In the case of “PEEEEQAEAGVDSSIVEIAPKRGRGRPRKSLPTEGTTAEAPAKRGRGRPKKVS” it was 27600; in that of “PEEKKEKAAEGEATKKEGEVGKKKGKKGDKKKEASGEQAPAAAAPAEEKKAEQ”, under 6570. For the sequence “PEKCGDLVVIRGGRLHFRSSAVRLHLLQQMGKTLLLLKDAHLQLTLRTLLYAR”, the “transcriptional activation domain activity” value was found to be 46500. On to “PEKLFGLMHAAISNFPEWETKVGSWFLLGIWHPRFFKAAKEILPYCRRSCISF”, for which the “transcriptional activation domain activity” value was 64500. Regarding “PELGRIVRWKWFEWTAKALFIQLYSWSLQAFLFSVGWFNRFLVRKDIVLQIIM”, the “transcriptional activation domain activity” value worked out at 51900. Turning to “PELIGFCCFSMRFFVFIDLLGTLILPATVVYLIYLIIVVATRASAFPQIAIIM”, the “transcriptional activation domain activity” value amounted to 59400. As to “PELVPLDLKNPELDSSFDLNMNLDLNLNLDSNFNIALNRSDSSGSTMNLDYKL”, the “transcriptional activation domain activity” value turned out to be 101000. In the case of “PENWTMDSWPLYWPQALIDTIPSLQLSIPPMDLTTLDNPLAPFAFFMFLFSWQ” it was 53400; in that of “PEPVAAPAPANDGFSEVQHNRGGRGRGGQYQGEGRGGYRGRGRGGPRGGGEFR”, 24500. Turning to “PEPVSEEPKAESSRTATAPPSLARRAASYFVSSFRGRTLHGTKIDVPDGYTGL”, the “transcriptional activation domain activity” value is 49000. In the case of “PEQSSSNAVSDAADQLANVKLEDGTNAAASSAPRTRKPRARKPKRKAAAANAS” it was 12100; in that of “PESINYVLEQGSLLSRFTYRFVIFICKLARINQPTYRLLIRFGLLDMILRICV”, 87400. On to “PEVMHALLFWTSNLLLFGINAIAFSKVSWFITLIRLVVNCRQKVALWMLMVFS”, for which the “transcriptional activation domain activity” value is 60100. As to “PFAFLLLLLFPLVLFLPALLLLFLPLLPLLPLLLWILWIQTLQSLFSFPDISD”, the “transcriptional activation domain activity” value was found to be 46900. Turning to “PFCMVNAKTVTLRMIESIHKLRRVLVRSEDEIIRLISPVSAKVLCTCLPLFEM”, the “transcriptional activation domain activity” value is 60400. With “PFFRVHHLYLPSLLQVVNLAILTSHALFNFIPHFYIVCIIVFWEGLLGGLVYV”, the “transcriptional activation domain activity” value was 60500. Regarding “PFFSLDNIMATFDTSTGKLRIWGIRAKPRFVWFCSKEHLLPCMNVKMIRYNSI”, the “transcriptional activation domain activity” value worked out at 64600. On to “PFGFLTDEVKNSYLRCSYKWSFHHIPNLLIAIRERRLDPLLIWAMLAITVRFS”, for which the “transcriptional activation domain activity” value was found to be 79500. With “PFGICGSFLGLFFCVMGLIAHMPSIWLVRGGNHSYTSLPGNSWLCVIFCLFSC”, the “transcriptional activation domain activity” value turned out to be 49200.

For the sequence “PFIIVTGLVVFVYYSYLDRIFLVLLRKLHRKALAIAYFVPLNIFIFLFIISYC”, the “transcriptional activation domain activity” value was 63700. “PFLFKITVLYVLEVIDGILDVSRFFPAVQLELCCLMFLWCCCGMVLLWFCLTR”: the “transcriptional activation domain activity” value worked out at 58800. The same measure for “PFLFPSLFYSQYHTIPFSFSCHFIPLSFSFPSFYSGSPIPFPFLFSSSYLFLF”: 58300; for “PFLLLLPVSLFSFLFFHFFYLFVSFSFFLFCYFFYFLHFFLTFLIFLLFLTFL”: 34900; for “PFLLYTSGFLFMGATEEQMNLLTSAGVSHVSYILLLYSISFLLFLFVCMLLHL”: 33400. Consider “PFLPSSLPPFLPSSLPPFLPSSLPPFLPSSLPPSLLFSFLFSFPLPSPPSLPL”, for which the “transcriptional activation domain activity” value stood at 64000. Consider “PFLTTYPESYVHRAFEFGRVFDYRWTVNWRMIPEKTFVSTWFAHQLLLCHVIA”, for which the “transcriptional activation domain activity” value was determined as 56500. For the sequence “PFPLLPFPLLPFPLLPSPLPIPLLPIPLLSFPLLPFPFLPFPLLSYPLFHFTV”, the “transcriptional activation domain activity” value came to 44800. Turning to “PFPLPLLLPCPLPLLFPLSFPLLLLLPFLLPLLFTLSFTLLFMLSFPLLFMLS”, the “transcriptional activation domain activity” value came out at 47900. On to “PFPLSFPLPFLLSFPLPFLLSFPLISSQPFPLSLLSFPPFPPLSPLPPPSPFF”, for which the “transcriptional activation domain activity” value stood at 44600. Regarding “PFQFLLLKSLSIQKHSDLIIRGCSHFYVGVLSCILNFFLGSWSAWLKRFWYML”, the “transcriptional activation domain activity” value stood at 80300.

Turning to “PFRIGRIVAWISYGIHQVGQWGILAKVQRAKEEWSNTYRWWNWSMVYLNGFML”, the “transcriptional activation domain activity” value was 59700. With “PFSFGLFLLYLCSCLTNCMTHIVFCLCSNIQLFFRFWFFYWIDHRPLGFFLAR”, the “transcriptional activation domain activity” value was determined as 44700. For “PFSFSNTDLTALFTHPEGPNCTNTNNGNVDVCNRASTDATDANIENLSFLNMA”, the “transcriptional activation domain activity” value came to 116000. In the case of “PFSHFVRMLLIYLPSLRLIVYYAFSFTLIMPFVLGYSVFMPSNWDTATFFFSY” it was 61900. As for “PFSNFFSNLFLYLFFDLFSNFFFIFSLPFILFHIISSIFNLNFNLLLLLIHLF”, the “transcriptional activation domain activity” value turned out to be 65800. On to “PFTELFRRFLFSNIRFTSKVTIISYIGTYYAIGAAWIMTTANYFAIGWFNGYL”, for which the “transcriptional activation domain activity” value was determined as 46500. Regarding “PFTIVFILPFDFSSTQYRICEHNCDAPLGYISSQFTRRLWVVLYWTMYLLTWL”, the “transcriptional activation domain activity” value was 67000.

Take “PFVTRCQRNIRIACLICFFFTYSLFHLAFYVGLERRNVPVPLGNHFWSVYGFA”: the “transcriptional activation domain activity” value came to 38200. The same measure for “PFVVTLLNLWKIWSLKLLKEKARLVVDGGAFVMGCVDETVTLRGHDDHKWTKD”: 56800; for “PGAAGGEKEKKKRQRTKNKKVDAAAPAEDAPAAAAEKLAKLEVAPADDDAAAK”: 25900. As for “PGEVSEAEANGDAPKADDAAAPESGEAAKPKKKKKKAAKKPKKEGEEGAAAAP”, the “transcriptional activation domain activity” value is 37700. Regarding “PGEVSEAEANGDAPKAEAAVAPDSDEAAKPKKKKKARKPKAAKKGEDGEPAAA”, the “transcriptional activation domain activity” value is 17100. Regarding “PGEVSEAEANGDAPKVEAAAKPKKKKKKAARKPKTKEEDGAPAAAPTEEAAPA”, the “transcriptional activation domain activity” value came to 10100.

“PGEVSEAEANGEVKAEGEVVATDDAAKPKKKKSKKSRKARAAKAATEDEEGAA”: the “transcriptional activation domain activity” value is under 6570. The same measure for “PGKCINEFIEVVCKLADSGRLSLRMLVDIVVLFWNLTRVHCEQFSHKFLRLLH”: 15900; for “PGLILVYSHLNLLLRNHADLEMIYIIGPGHGAPAALAALWLEGSLERFYPGEY”: 31000; for “PGLVGVFFIFSSPFSGFCFCFCFCLFELIFFFFFFFYYFLSRIGVLTRLSAGF”: 45800.

For the sequence “PGVRGNTESIFLLICNLPYLEHPDKVARTVYKIIWGEHHRNLLRLTYWLHRCP”, the “transcriptional activation domain activity” value worked out at 68200. The same measure for “PGYVVQYKNSLIGKHFKMLQQLGVFYLHDLCAPLILDLWKATGELGAYLWFPE”: 40900; for “PHGLLLPLLAHLFSLVLKISFLFCFEYKLAIFIFALVWQSLVVASLTCGFVFV”: 55700; for “PHHKWLVPTPFASHAFHPVDGYAQSVPYHLFVFLFPMHRLLYLILFVAVNFWS”: 48000. “PHHKWVVPTPFSSHAFHPVDGWLQSIPYHIFILVFPLHRVLYLVLFVLINFWT”: the “transcriptional activation domain activity” value came out at 59200. As to “PHLFVNQGKLESYAGVVTRVVDLVLGIYVIDDCHMLILTYWPLLSPLTVLRTG”, the “transcriptional activation domain activity” value turned out to be 51000. The same measure for “PHTYNVILFLVIHDPEADVINRVKAYVTYVLRTMPKQLRLESFEMVFIRVLHL”: 54600; for “PIARESSSLFLANTPYLSDFLTMGSSYGGSGGFAKSITADPSLDYFNYKNHSH”: 68600; for “PIDPETGRPKKGRPRKSVDAASAVGTSSTGEPQAKRARGRPKKNAGAVAATAV”: 51100. In the case of “PIEYNTWLIFRQFVDIILLNDFVAYCMFAFSHFRVPNNLSITMHLLRWICGLA” it was 42000; in that of “PIGIFFFFPFVWLFRVFIFLCISYCCFLVPYVCSRGSSFFWLPVSTLFLSFLF”, 45000. For the sequence “PIHALFCTHIWLLFKLCILCVLFLLSLLCLYGGSMINTGLRIILHLLLCVYLF”, the “transcriptional activation domain activity” value is 81800. “PIHAVYLFHLISSTFLLKYIYTYRFYFIFFLPFFLIWILCAAYWWLFFTHHIP”: the “transcriptional activation domain activity” value was 54600.

With “PILIPGGLGVVLLHLPASFTKIECNESGFHQFIKRRCRLLLGVEPGMKVVVLT”, the “transcriptional activation domain activity” value is 60900.

Regarding “PILLILLLLHVGFFGGYYFVICLGGLFDVCLSQLLVYKWQSFGFYWRIVVFLW”, the “transcriptional activation domain activity” value came to 78100. Turning to “PILYFLSLSLSLPPSLSLFLFLYIINQISRFWLVLFQLFFLFLFLLFPSILTS”, the “transcriptional activation domain activity” value turned out to be 62800. For the sequence “PIMVVTLPLPAQITQYYPITLVSVLQWFAFWSFSALLTIPWLLCVYQLVTHSL”, the “transcriptional activation domain activity” value amounted to 54400. For the sequence “PINAAISNLMLGMLLFCGSLYTLVTFLPIFHSNCPYYTPLSSPWWRILRALGV”, the “transcriptional activation domain activity” value amounted to 46000.

As to “PINALCIILSDDSIKALLQEEFPLKQYRDICNKLDVYLSRRRILGILLYMYPT”, the “transcriptional activation domain activity” value worked out at 72700.

As to “PIPLGYGSLWMYEFLYFCLLHVVFTICDGIYLLRAELTLIILLHFLLSWDEGN”, the “transcriptional activation domain activity” value came out at 47600.

Consider “PIYNLHFAPSNEYWFSFSYLPGQGQCTLDSSTTSIGQTRYFIWSLSLWRRIFL”, for which the “transcriptional activation domain activity” value is 70200.
